Source: the supplement of paper PMC9170038

Test system: MS2 coat protein
Experiment: apparent KD of MS2 coat protein; designed switch direction (-1 OFF switch, 1 ON switch): -1; higher = weaker reporter binding
Method in brief: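 Designed RNA switches with common flanks were made on Illumina chips by stalled E. coli RNA polymerase. Titration with SNAP-549-labelled MS2 coat protein doubled from 0.7 or 1.5 nM up to 3 µM. Apparent KD is each design's median over clusters after curve-fitting normalised fluorescence.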

[1] = Eterna round: R95, input ligand: FMN 200 uM
[2] = Eterna round: R95, input ligand: microRNA oligo, concentration not stated
[3] = Eterna round: R95, input ligand: none
[4] = input ligand: microRNA oligo, concentration not stated

Sequence	apparent KD of MS2 coat protein [1] [nM]	apparent KD of MS2 coat protein [2] [nM]	apparent KD of MS2 coat protein [3] [nM]	apparent KD of MS2 coat protein (input ligand: FMN 200 uM) [nM]	apparent KD of MS2 coat protein (input ligand: none) [nM]	apparent KD of MS2 coat protein [4] [nM]
GAAAAGGUAGGAUAUACGAAUAAAAAGGGUAGAAAAAAAACACAUGAGGAUCACCCAUGUAGAAGGACCAAAAG [salish99_ex2_r3_085] (puzzle: Exclusion 2)	67.7	25	24.4			
CGGUGUAGAGGAUAUACGUGGAUAUAAGAACAUGAUAAUUUACAUGAGGAUCACCCAUGUAGAAGGCUAUAGCG [JR_Ex2_Sub080] (Eterna round: R97, puzzle: Exclusion 2)				74.8	207	
AAACCUGCCCAUGACCGCAAGCCUUUUGCUUGUCUUACCACAUGAGGAUCACCCAUGUGACAUGGGCUCCUUAUAAA [Solabixe] (puzzle: Sensor v3, turn-off variant 2)	14.1	10.5	13.5			
UCCGUGUGAGGAUAUGCGAAUGACGAGUUACCUUGUCGCAAGCAGAAGGUACAUGAGGAUCACCCAUGUCCUAU [Eternabot (L1) Solution 61] (Eterna round: R97, puzzle: Exclusion 4)				27.8	20.4	
AGCUAGAUAGGAUAUGCCCGGGAUAACAUGAGGAUCACCCAUGUGGCCGAAUCAAGUCCAGCAGAAGGGUUUGGGA [Mod of ViennaUCT 11 - Jieux - Exclusion 5] (Eterna round: R97, puzzle: Exclusion 5)				43.2	34.8	
GGUUGGCGAGGAUAUACAUGAGGAUCACCCAUGUGAGAGAUACUAGUGAGGUCGAUUAGUAGAAGGCGCUGACG [JL-ex3-2.01 salish99 mod] (puzzle: Exclusion 3)	174	31.1	32.2			
GAUUAUGCGAGCUUUAGGGACAUGAGGAUCACCCAUGUUCGUCUUAUUAGUCUGAGUGCACUGACAUACCUAAAUCU [JMF 85] (puzzle: Sensor v3, turn-off variant 1)	15.4	22	16.7			
GGUCAGAUGGUAGGAUAUUUAUAUCGAGUGACCCUUUCAUAACAUGAGGAUCACCCAUGUCGGUGGGAGAAGGGCCGUACGGCG [salish99_ExNG02_R04_013] (Eterna round: R96, puzzle: Exclusion NG 2)				37.7	45.7	33.1
UUUUAACAUGAGGAUCACCCAUGUGAGGAUAUCGAUUUUUUUAUUAAUAUUAAUAAAACGAGAAGGCACAUUUU [JMF 19] (puzzle: Exclusion 1)		73.5				
AAACAGCAAGGAUAUACGGGCUGUGCUUUUCAUUUCUUACAACAUGAGGAUCACCCAUGUAGAAGGUGCAACAA [Ex2 #5] (Eterna round: R97, puzzle: Exclusion 2)				80.4	24.5	
AGCGCCAUCGUGAGAUGGCGUAUUACAUGAGGAUCACCCAUGUAGGAUAUCGAUUGCUUUGCAGUCGAGAAGGACAUGUUCUUU [JL ENG3 3.80 Mod D] (Eterna round: R96, puzzle: Exclusion NG 3)				27.1	23.4	19.3
AUAUACGGAGGAUAUACUUGAGGAUCACCCAAGUGGAGUCCCGUUUGGGCGGUAAAUAGUAGAAGGCCGUCCCA [jl-ex3-4.44 ViennaUCT mod] (Eterna round: R97, puzzle: Exclusion 3)				16.8	12.3	
GUAGAGUCAGGAUAUACGAGAUCGAAAGAUCGGCGGUCUGUACAUGAGGAUCACCCAUGUAGAAGGGACUCUAC [ChP 11-04-2015 #6] (puzzle: Exclusion 2)		15.3				
GGUUGACAUGAGGAUCACCCAUGUGAGGAUAUGCGAGAGAAAAAAGUGAGGAAGAUAAGCAGAAGGCGCUGUCG [salish99-ex1_r3_013] (puzzle: Exclusion 1)	118	178	260			
AAUAACAAGCUGAUCCUAAACAUGAGGAUCACCCAUGUGUUCGUCUUGUAAAGUACUAUCACGAAAGUGAUAGUACA (Eterna round: R97, puzzle: Sensor, turn-off variant 1)				75.2	80	
AAAAUAAAGAUGCCUUAAAACAUGAGGAUCACCCAUGUGAGUAAGGAUAUCGGAACCAAUCGCGACGAGAAGGUACUCGCGUGU [Ceestemaat] (Eterna round: R96, puzzle: Exclusion NG 3)				9.87	14.4	9.44
CAGUAUCUAGGAUAUACGCUGGGUACUAUUCUCAAGUCAGGACAUGAGGAUCACCCAUGUAGAAGGAGAAGCAU [EX2 A.28] (Eterna round: R97, puzzle: Exclusion 2)				32.5	34	
CCCUCACAUGAGGAUCACCCAUGUCAGGAUAUCUCACAUCGGCCUUAGGCCAAUGUCAAGAGAAGGGACGUAUC [Usanvequin] (puzzle: Exclusion 1)		21.7				
AGAUAGUGGUGAGGAUAUGAGAAUAGAAAGAAAUCAGAAGGCACACAUGAGGAUCACCCAUGUGAGUUCUUGAGAUUACAUGGU [Prohibition 42 - Jieux - Exclusion NG 1] (Eterna round: R96, puzzle: Exclusion NG 1)				22.6	15.4	11.3
CGUGUCUUUUACGUGAGUGGUGGGUGCAACAGGUGGGUUACAUGAGGAUCACCCAUGUGCUCACUUGCUCGUCUUUU [Grok-var2-09] (puzzle: Sensor v3, turn-off variant 2)	60.7	39.3	58.1			
CAGCCUCAGGUUAGGAUAUACGCGUGGCCGAAGGAGUAGAAGGGACAUGAGGAUCACCCAUGUGGGUUCAAAUG [Onsoisgeso] (puzzle: Brourd's mod of Exclusion 4)	292	151	270			
AUAAUGUAAGGAUAUCAGUCGUACAGCCUCGGCUGUACGACUGAGAAGGUACAUGAGGAUCACCCAUGUGGUCA [E4/9-A2] (Eterna round: R97, puzzle: Exclusion 4)				103	1040	
CAAAUCAGGCGAGGAUAUCCGAAAGGAAGUGUAGGAGAAGGCGCGAAAUAUAAAACAUGAGGAUCACCCAUGUCGUCCCGUGUG [PowerStrip EXNG 1.21] (Eterna round: R96, puzzle: Exclusion NG 1)				169	130	117
UACCGGCGGACCGAAGCUUUUUGCUUGUCUUAUACUACAACAUGAGGAUCACCCAUGUGGUGGUGGUCCGUUGUAGU [JL ViennaUCT Bitein mod 2] (puzzle: Sensor v3, turn-off variant 2)	54.4	17.8	47.3			
GUAGAGUCAGGAUAUACGCGAUCGAAAGAUCGGUGGUCCUUACAUGAGGAUCACCCAUGUAGAAGGGACUCUAC [Omei mod 13 to Eli's favorate candidate (ch.parushev)] (Eterna round: R97, puzzle: Exclusion 2)				65.9	580	
